Results published in US20150299268A1.

Assays:
core-V3-D7 (HIV-1) = test: capture ELISA
[1] = biological target: BaL-gp120-dV3 (HIV-1 BaL); test: capture ELISA
[2] = biological target: BaL-gp120-T303A (HIV-1 BaL); test: capture ELISA
[3] = biological target: BaL-gp120-E47A (HIV-1 BaL); test: capture ELISA
[4] = biological target: BaL-gp120-D368R (HIV-1 BaL); test: capture ELISA
[5] = biological target: BaL-gp120-Y39A (HIV-1 BaL); test: capture ELISA
[6] = biological target: BaL-gp120-Y40A (HIV-1 BaL); test: capture ELISA
[7] = biological target: BaL-gp120-P498A (HIV-1 BaL); test: capture ELISA
[8] = biological target: BaL-gp120-P493A (HIV-1 BaL); test: capture ELISA
[9] = biological target: BaL-gp120-W35A (HIV-1 BaL); test: capture ELISA
FLSC (HIV-1) = FLSC (HIV-1) (UniProt P01730); test: capture ELISA
[10] = biological target: BaL-gp120-L494A (HIV-1 BaL); test: capture ELISA
[11] = biological target: BaL-gp120-D62A (HIV-1 BaL); test: capture ELISA
[12] = biological target: BaL-gp120-D78A (HIV-1 BaL); test: capture ELISA
[13] = biological target: BaL-gp120-R476A (HIV-1 BaL); test: capture ELISA
[14] = biological target: BaL-gp120-E47AE91A (HIV-1 BaL); test: capture ELISA
[15] = biological target: BaL-gp120-S158A (HIV-1 BaL); test: capture ELISA
[16] = biological target: BaL-gp120-R58AK59A (HIV-1 BaL); test: capture ELISA
[17] = biological target: BaL-gp120-T499A (HIV-1 BaL); test: capture ELISA
[18] = biological target: BaL-gp120-F53A (HIV-1 BaL); test: capture ELISA
[19] = biological target: BaL-gp120-S334A (HIV-1 BaL); test: capture ELISA
[20] = biological target: BaL-gp120-R476AR480A (HIV-1 BaL); test: capture ELISA
[21] = biological target: BaL-gp120-T455A (HIV-1 BaL); test: capture ELISA
core-V1V2-D7 (HIV-1) = test: capture ELISA
[22] = biological target: BaL-gp120-T162A (HIV-1 BaL); test: capture ELISA
core-D7 (HIV-1) = test: capture ELISA
[23] = biological target: BaL-gp120-G495A (HIV-1 BaL); test: capture ELISA
[24] = biological target: BaL-gp120-K500A (HIV-1 BaL); test: capture ELISA
[25] = biological target: BaL-gp120-dV2 (HIV-1 BaL); test: capture ELISA
[26] = biological target: BaL-gp120-E32A (HIV-1 BaL); test: capture ELISA
[27] = biological target: BaL-gp120-dV1 (HIV-1 BaL); test: capture ELISA
[28] = biological target: BaL-gp120-Y61A (HIV-1 BaL); test: capture ELISA
[29] = biological target: BaL-gp120-D57AD62A (HIV-1 BaL); test: capture ELISA
[30] = biological target: BaL-gp120-K33A (HIV-1 BaL); test: capture ELISA
[31] = biological target: BaL-gp120-V496A (HIV-1 BaL); test: capture ELISA
BaL-gp120 (HIV-1 BaL) [32] = test: capture ELISA
[33] = biological target: BaL-gp120-H105A (HIV-1 BaL); test: capture ELISA
[34] = biological target: BaL-gp120-P76A (HIV-1 BaL); test: capture ELISA
[35] = biological target: BaL-gp120-D57AD78A (HIV-1 BaL); test: capture ELISA
[36] = biological target: BaL-gp120-K46A (HIV-1 BaL); test: capture ELISA
[37] = biological target: BaL-gp120-K487AK490A (HIV-1 BaL); test: capture ELISA
[38] = biological target: BaL-gp120-S200A (HIV-1 BaL); test: capture ELISA
[39] = biological target: BaL-gp120-W45A (HIV-1 BaL); test: capture ELISA
[40] = biological target: BaL-gp120-mV3 (HIV-1 BaL); test: capture ELISA
[41] = biological target: BaL-gp120-E106AD107A (HIV-1 BaL); test: capture ELISA
[42] = biological target: BaL-gp120-I491A (HIV-1 BaL); test: capture ELISA
[43] = biological target: BaL-gp120-I423A (HIV-1 BaL); test: capture ELISA
[44] = biological target: BaL-gp120-E492A (HIV-1 BaL); test: capture ELISA
[45] = biological target: BaL-gp120-E31A (HIV-1 BaL); test: capture ELISA
[46] = biological target: BaL-gp120-D57A (HIV-1 BaL); test: capture ELISA
[47] = biological target: BaL-gp120-W69A (HIV-1 BaL); test: capture ELISA
[48] = biological target: BaL-gp120-I420R (HIV-1 BaL); test: capture ELISA
[49] = biological target: BaL-gp120-V68A (HIV-1 BaL); test: capture ELISA
[50] = biological target: BaL-gp120-V75A (HIV-1 BaL); test: capture ELISA
[51] = biological target: BaL-gp120-V44A (HIV-1 BaL); test: capture ELISA
gp120-b12-ScFV = test: ELISA
BaL-gp120 (HIV-1 BaL) [52] = test: ELISA
gp120-VRC01-ScFV = test: ELISA
gp120-JR48.1-ScFV = test: ELISA
FLSC R/T (HIV-1) = FLSC R/T (HIV-1) (UniProt P01730); test: ELISA
gp120-JR4-ScFV = test: ELISA

## 2G12 (antibody)
core-V3-D7 (HIV-1)
  % Binding: 86%
[1]
  % Binding: 100%
[2]
  % Binding: 88%
[3]
  % Binding: 96%
[4]
  % Binding: 82%
[5]
  % Binding: 89%
[6]
  % Binding: 93%
[7]
  % Binding: 93%
[8]
  % Binding: 93%
[9]
  % Binding: 99%
FLSC (HIV-1)
  % Binding: 104%
[10]
  % Binding: 79%
[11]
  % Binding: 86%
[12]
  % Binding: 87%
[13]
  % Binding: 98%
[14]
  % Binding: 86%
[15]
  % Binding: 80%
[16]
  % Binding: 88%
[17]
  % Binding: 100%
[18]
  % Binding: 99%
[19]
  % Binding: 16%
[20]
  % Binding: 83%
[21]
  % Binding: 87%
core-V1V2-D7 (HIV-1)
  % Binding: 100%
[22]
  % Binding: 87%
core-D7 (HIV-1)
  % Binding: 100%
[23]
  % Binding: 93%
[24]
  % Binding: 92%
[25]
  % Binding: 82%
[26]
  % Binding: 93%
[27]
  % Binding: 93%
[28]
  % Binding: 81%
[29]
  % Binding: 105%
[30]
  % Binding: 83%
[31]
  % Binding: 96%
BaL-gp120 (HIV-1 BaL) [32]
  % Binding: 100%
[33]
  % Binding: 89%
[34]
  % Binding: 90%
[35]
  % Binding: 95%
[36]
  % Binding: 92%
[37]
  % Binding: 83%
[38]
  % Binding: 92%
[39]
  % Binding: 92%
[40]
  % Binding: 100%
[41]
  % Binding: 79%
[42]
  % Binding: 92%
[43]
  % Binding: 94%
[44]
  % Binding: 93%
[45]
  % Binding: 80%
[46]
  % Binding: 91%
[47]
  % Binding: 87%
[48]
  % Binding: 93%
[49]
  % Binding: 82%
[50]
  % Binding: 89%
[51]
  % Binding: 93%
gp120-b12-ScFV
  Fold of Ab needed for ELISA binding OD equal to half max on gp120: 0.56 fold
BaL-gp120 (HIV-1 BaL) [52]
  Fold of Ab needed for ELISA binding OD equal to half max on gp120: 1 fold
gp120-VRC01-ScFV
  Fold of Ab needed for ELISA binding OD equal to half max on gp120: 0.66 fold
gp120-JR48.1-ScFV
  Fold of Ab needed for ELISA binding OD equal to half max on gp120: 0.58 fold
FLSC R/T (HIV-1)
  Fold of Ab needed for ELISA binding OD equal to half max on gp120: 0.91 fold
gp120-JR4-ScFV
  Fold of Ab needed for ELISA binding OD equal to half max on gp120: 0.61 fold

## A32 (antibody)
gp120-b12-ScFV
  Fold of Ab needed for ELISA binding OD equal to half max on gp120: 0.06 fold
BaL-gp120 (HIV-1 BaL) [52]
  Fold of Ab needed for ELISA binding OD equal to half max on gp120: 1 fold
gp120-VRC01-ScFV
  Fold of Ab needed for ELISA binding OD equal to half max on gp120: 0.2 fold
gp120-JR48.1-ScFV
  Fold of Ab needed for ELISA binding OD equal to half max on gp120: 0.1 fold
FLSC R/T (HIV-1)
  Fold of Ab needed for ELISA binding OD equal to half max on gp120: 0.04 fold
gp120-JR4-ScFV
  Fold of Ab needed for ELISA binding OD equal to half max on gp120: > 100 fold

## PG04 (antibody)
gp120-b12-ScFV
  Fold of Ab needed for ELISA binding OD equal to half max on gp120: > 100 fold
BaL-gp120 (HIV-1 BaL) [52]
  Fold of Ab needed for ELISA binding OD equal to half max on gp120: 1 fold
gp120-JR48.1-ScFV
  Fold of Ab needed for ELISA binding OD equal to half max on gp120: 0.36 fold
gp120-JR4-ScFV
  Fold of Ab needed for ELISA binding OD equal to half max on gp120: 0.26 fold

## PG9 (antibody)
gp120-b12-ScFV
  Fold of Ab needed for ELISA binding OD equal to half max on gp120: 0.06 fold
BaL-gp120 (HIV-1 BaL) [52]
  Fold of Ab needed for ELISA binding OD equal to half max on gp120: 1 fold
gp120-VRC01-ScFV
  Fold of Ab needed for ELISA binding OD equal to half max on gp120: 0.09 fold
gp120-JR48.1-ScFV
  Fold of Ab needed for ELISA binding OD equal to half max on gp120: 0.07 fold
FLSC R/T (HIV-1)
  Fold of Ab needed for ELISA binding OD equal to half max on gp120: 8.02 fold
gp120-JR4-ScFV
  Fold of Ab needed for ELISA binding OD equal to half max on gp120: 0.02 fold

## PGT128 (antibody)
gp120-b12-ScFV
  Fold of Ab needed for ELISA binding OD equal to half max on gp120: 0.09 fold
BaL-gp120 (HIV-1 BaL) [52]
  Fold of Ab needed for ELISA binding OD equal to half max on gp120: 1 fold
gp120-VRC01-ScFV
  Fold of Ab needed for ELISA binding OD equal to half max on gp120: 0.23 fold
gp120-JR48.1-ScFV
  Fold of Ab needed for ELISA binding OD equal to half max on gp120: 0.14 fold
FLSC R/T (HIV-1)
  Fold of Ab needed for ELISA binding OD equal to half max on gp120: 5.07 fold
gp120-JR4-ScFV
  Fold of Ab needed for ELISA binding OD equal to half max on gp120: 0.13 fold
